Series [1] has as its system murine tumor cell lines (B16F10, CT26, Neuro-2a) expressing full-length MICA or MICB. The series is described as follows: Shed and surface MICA/MICB in murine tumor cell lines transduced with full-length MICA or MICB. It counts as cell-based, mouse. Conditions: B16F10 cells expressing MICA or MICB; comparison among mAbs. From the text: B16F10, CT26, Neuro-2a, EL4 and RMA-S cell lines were transduced with lentiviral vector pHAGE-CMV-fullEF1a. MICA (allele 009) cDNA or other inserts were placed between NotI and BamHI cloning sites, 3′ to the EF1α promoter and 5′ to the IRES. ZsGreen or luciferase cDNAs were cloned 3′ to the IRES as fluorescence or bioluminescence reporters, respectively. The vector with the ZsGreen reporter was used to compare expression of cDNAs encoding full length MICA, full-length MICB and secreted MICA (Neuro-2a, RMA-S and/or B16F10 cell lines). CT26, EL4 and B16F10 cell lines were transduced with the vector that supported expression of the luciferase reporter. […]
Tumor cells (5×10^4 or 1×10^5 per well, depending on the cell line) were cultured for 24 to 72 hours in 96-well plates (flat-bottom plates for adherent cell lines, U-bottom plates for suspension cell lines). […] MICA or control antibodies were added at different concentrations, and shed MICA/B was then detected in supernatants by ELISA using the Human MICA ELISA kit (Ab59569, Abcam) or Human MICB DuoSet ELISA kit (DY1599, R&D Systems), using the procedures recommended by the manufacturers. […]
MICA and MICB were detected on the cell surface by the PE-conjugated anti-MICA/B antibody (clone 6D4, 320906, Biolegend). […] All samples were acquired in a BD LSR Fortessa flow cytometer, and analyzed by FlowJo V10 software.

The subject of a further series is RPMI-8226 cell line. In words: Proteasome inhibitor combination with MICA/B antibody, multiple myeloma cell lines. It counts as cell-based, human.
The subject of the next series is B16F10-MICA cells. In words: B16F10 metastasis model in immunocompetent mice. It counts as in vivo, C57BL/6 mice. On the procedure: The B16F10 cells were transduced with the luciferase-based lentiviral vector to express MICA. B16F10-MICA cells (5×10^5) were injected intravenously into C57BL/6 mice through the tail vein. Fewer tumor cells (4×10^5) were injected into NK cell-deficient mice given that the absence of NK cells results in a very large number of metastases. 7C6 or isotype control antibodies (MPC-11 or C1184, BioXcell, which have mIgG2b and mIgG2a isotypes, respectively) were administered intraperitoneally on days 1, 2, 7 and 10 at a dose of 200 μg per mouse. Antibody blockade and depletion were performed as described previously (24). For antibody-based depletion of CD8 T cells or NK cells, 100 μg per mouse of anti-CD8 (5358, BioXcell), anti-NK1.1 (PK136, BioXcell), and anti-asialo(as)GM1 (Wako Chemicals) were given on days −1, 0, and 7. For antibody blockade, anti-NKG2D (HMG2D, BioXcell) or control IgG (MOPC-21) were given at 200 μg per mouse on days −1, 0, 5, 7 and 10. Blood samples were collected at multiple time points by retro-orbital bleeding under isoflurane anesthesia. Mice were euthanized by CO2 inhalation, lungs were perfused with PBS and fixed in formalin solution, and the number of superficial metastases was counted under a stereomicroscope. Histology was performed by the Rodent Histopathology Core of the Dana-Farber/Harvard Cancer Center using lungs that had not been perfused with PBS.
Macrophages were depleted by intravenous injection of 0.2 ml clodronate liposomes (Encapsula NanoSciences LLC). In the humanized and B16F10-MICA metastasis models, 0.2 ml of clodronate liposomes or control liposomes were injected i.v. (on the same day of tumor cell inoculation and then once weekly).

A further series deals with MICA. In words: ELISA for antibody binding to immobilized MICA extracellular domain (α1-α3 domains; alleles 002, 008, 009, 018). The arrangement: species or system human. To be noted: immobilized antigen. On the procedure: ELISA experiments were performed in DELFIA® 96-well plates (Perkin Elmer) or in Nunc Maxisorp 96-wells plates (Thermo Scientific). Wells were coated with antigens by overnight incubation at 4° C. using 100 ng of protein in 100 μl of carbonate buffer, […]. Plates were subsequently washed with 1× Tris-buffered saline-Tween buffer and incubated for 2 hours with 2% bovine serum albumin (BSA) in phosphate buffered saline (PBS), pH 7.4, or DELFIA® Assay Buffer (Perkin Elmer) at room temperature. MICA antibodies were used at 1 μg/ml, unless indicated otherwise. Isotype controls were MPC-11 (mIgG2b) and MOPC-21 (mIgG1), but only MPC-11 is shown in the figures, given that no differences were observed between these controls. Human isotype control was a recombinant human IgG1 antibody (BE0096, BioXcell). Biotinylated goat anti-mouse IgG (Poly4053—Biolegend) was used as the secondary antibody which was followed by streptavidin-Europium (Perkin Elmer) and DELFIA® Enhancement Solution (Perkin Elmer). Europium fluorescence was quantified using an EnVision® microplate reader (Perkin Elmer). The HRP-conjugated secondary antibodies were Novex® Goat anti-human IgG (A24470, Life Technologies), Goat anti-mouse IgG1 (1070-05), IgG2a (1080-08), IgG2b (1090-05), and IgG3 (1100-05), and Goat anti-mouse IgG (31430, Thermo Scientific). […] Absorbance was read at 450 nm.
In general terms: In an ELISA, binding on a coated surface is turned into a signal by an enzyme label.

“Also recorded” adds a separate entry of the source.

B1: 7C6: monoclonal antibody from mice immunized with recombinant MICA α3 domain; parental mIgG2b; VH SEQ ID NO: 7, VL SEQ ID NO: 8 (antibody)
VH: QIQLVQSGPELKKPGETVKVSCKASGYMFTNYAMNWVKQAPEKGLKWMGWINTHTGDPTYADDFKGRIAFSLETSASTAYLQINNLKNEDTATYFCVRTYGNYAMDYWGQGTSVTVSSAKTTAPSVYPLAPVCGDTTGSSVTLGCLVKGYFPEPVTLTWNSGSLSSGVHTFPAVLQSDLYTLSSSVTVTSS
VL: DIQMTQTTSSLSASLGDRVTISCSASQDISNYLNWYQQKPDGTVKLLIYDTSILHLGVPSRFSGSGSGTDYSLTISNLEPEDIATYYCQQYSKFPRTFGGGTTLEIK
modifications: mAb 7C6 heavy chain amino acid sequence; mAb 7C6 light chain amino acid sequence
Take B1: the “stabilization of MICA/B on the surface of tumor cells” value in series [1] was “most effective in stabilizing MICAS on the surface of tumor cells”. The “human NK cell cytotoxicity against RPMI-8226, bortezomib plus antibody” value with RPMI-8226 cell line (1 nM bortezomib, versus PBS+Isotype) was “Human NK cell cytotoxicity is increased”. The “surface MICA/B, antibody plus proteasome inhibitor” value in the series with RPMI-8226 cell line (RPMI-8226, 24 hours, 10 mg/ml 7C6) was “expresses higher levels of surface MICA/B”. Also, in the series on B16F10-MICA cells (B16F10-MICA i.v. in C57BL/6 mice), the “shed MICA in serum” value is listed as “undetectable; also recorded: reduced shed MICA in the sera”. For the same molecule, the “therapeutic activity against lung metastases after NK cell or CD8 T cell depletion” value in the series with B16F10-MICA cells (anti-asGM1, anti-NK1.1 or anti-CD8β) is listed as “NK cells, but not CD8 T cells, were essential for the therapeutic activity”. In addition, the “therapeutic activity in Prf1−/− and Ifng−/− mice” value in the series on B16F10-MICA cells (lung metastases day 14) was “therapeutic efficacy was lost in perforin (Prf1) but not IFNγ (Ifng) deficient mice; also recorded: Perforin but not interferon-γ expression is required for therapeutic activity”. Moreover, the “binding to MICA full-length extracellular domain” value in the series with MICA is recorded as “also the full-length extracellular domain”.

The values are drawn from patent publication US12662540B2, “Compositions and methods for inhibition of MICA/B shedding” (DANA-FARBER CANCER INSTITUTE, INC., priority 2017, dated 2026).
